Experimental data reported in US8372810B2, “Anti-tumor drug, medicament, composition, and use thereof” (Gene Signal International SA, priority 2007, dated 2013).
Where “and” joins values, the source holds several entries; their conditions need not be identical. Identical values can stand only once. Entries after “also recorded” stand apart in the source; their conditions may differ.

Key:
[1] = Body weight and toxicity monitoring of mice bearing CALU-6 tumors; conditions: CALU-6 bearing Nude mice, 497C-T2 10 mg/kg IP
Protocol: Injections in groups 1, 2, 3 and 4 were performed according to the schedules Q2DX8, i.e. 1 quantity every two days, eight times.
CDDP was resuspended in sterile physiological serum at a concentration of 0.5 mg/mL and injected IP at a concentration of 5 mg/kg at a volume of 10 mL/kg, according to the treatment schedule Q2DX8.
Ketamine/Xylazine (80 mg/kg-12 mg/kg; Ref. K-113, Sigma, France) was used to anaesthetize the animals before sacrifice by cervical dislocation.

tumor cell line NCI-H460 = test: Proliferation of other cell lines: NCI-H460; assay type: cell-based, human; conditions: even at high concentration
HUVEC = test: In vitro angiogenesis of HUVEC induced by FGF2 and VEGF on Matrigel; assay type: cell-based, human
Protocol: The purified proteins 497C-T2, 497C-T3, 497C-T4 and 497C-T5 were tested in vitro on angiogenesis of HUVEC induced by FGF2 and VEGF on Matrigel.
24 wells plates were prepared with 250 μL of BD Matrigel™/well and then incubated 30 minutes in incubator.

CHO = test: Proliferation of other cell lines: CHO; assay type: cell-based; conditions: even at high concentration
HUVEC cells = test: Inhibition of endothelial cell proliferation in vitro (MTT); assay type: cell-based, human
Protocol: HUVEC cells were cultured to confluency in complete EGM2-MV medium (Cambrex) at 37° C. and in 5% CO2 humidified atmosphere. Cells were then collected by trypsine-EDTA digestion (Versene, Eurobio). After 5 min, the enzymatic reaction was stopped by adding 3 ml of the culture medium containing 5% FCS. Cells were then centrifuged at 220 g for 10 min at room temperature, washed twice with 5 ml of culture medium, suspended in complete culture medium, counted and adjusted to 50 000 cells/ml. One hundred μL per well were then distributed to a 96-well cell culture grade micro-plate (5 000 cells/well) and incubated with different concentrations of the purified protein 497C-T2 in Tris-HCl 20 mM buffer (pH 8), containing 150 mM NaCl and urea 2M; this buffer was used as control.
After 42 hrs at 37° C., cell proliferation was measured using thiazolyl blue tetrazolium bromide (MTT) method. Briefly, MTT (Sigma) was dissolved in PBS at 5 mg/ml, the solution was filtered (0.22 μm) and 10 μl were added to each well of the 96-well micro-plates. After 3 hrs of incubation at 37° C., 5% CO2 humidified atmosphere, the micro-plates were centrifuged at 220×g for 10 min, the supernatant was discarded, and the crystals dissolved by the addition of 100 μl of DMSO to each well. The optical density (OD) at 570 nm was then measured using μQuant micro-plate reader (Bio-Tek Instrument gmbh, Colmar, France) coupled to the KC4 (Bio-Tek) software.

[2] = system: fibroblast cell line MRC5; test: Proliferation of other cell lines: MRC5; assay type: cell-based; conditions: even at high concentration
CALU-6 tumors = test: CALU-6 non-small cell lung cancer xenograft in Swiss Nude mice, tumor growth; assay type: in vivo
Protocol: CALU-6 cells were cultured as adherent cells in complete EMEM medium (Ref. CM1MEM18-01, batch No. 462502, Eurobio, France) 10% fetal calf serum (FCS; Ref. CVFSVF00-01, batch No. 513021, Eurobio, France) under a 37° C., 5% CO2 humidified atmosphere. They were amplified in 75 cm^2-flasks to reach 90×10^6 cells.
At D0, CALU-6 cells (human lung carcinoma) were collected from 75 cm^2-flasks by removing the medium and adding 3 ml of trypsine-EDTA (Ref. CEZTDA00-0U, batch No. 633920, Eurobio, France). After 5 min of incubation at 37° C., cells had detached from the plastic and the enzymatic reaction was stopped by adding 3 ml of EMEM medium containing 10% fetal calf serum. Cells were then centrifuged at 700 g for 5 min at room temperature. They were resuspended in serum-free EMEM culture medium. Cells were counted and viability assessment by Trypan Blue exclusion (Ref. CSTCOL03-OU, batch No. 434511, Eurobio, France). The number of viable CALU-6 cells was >99%. The number of cells was then adjusted to 25×10^6 cells/ml in serum-free medium.
CALU-6 cells 5×10^6 cells/mouse in 200 μl of serum-free medium) were then implanted subcutaneously in the right flank of each mouse.
At D12 post-implantation of the CALU-6 cells, the thirty mice were randomized into six groups of 5 mice. Tumor volumes had reached 228 to 468 mm^3 and mean tumor volumes were not statistically different between groups after randomization.
Mean tumor volumes (MTV), mean relative tumor volume (MRTV) and tumor growth inhibition (T/C) were calculated as for example 7.

[3] = IP Q2DX8, CDDP 5 mg/kg (G2), 497C-T2 10 mg/kg (G3), 497C-T2 10 mg/kg + CDDP 5 mg/kg (G4)

B1: 497C-T2: entire LEL domain of protein 497C, SEQ ID NO:3 (112 amino acids); as produced SEQ ID NO:8, with N-terminal His-Tag and C-terminal tail, 24 kD (protein, listed as Homo sapiens)
chain: MHHHHHHSSGLVPRGSGMKETAAAKFERQHMDSPDLGTDDDDKISGFVFRHEIKDTFLRTYTDAMQTYNGNDERSRAVDHVQRSLSCCGVQNYTNWSTSPYFLEHGIPPSCCMNETDCNPQDLHNLTVAATKVNQKGCYDLVTSFMETNMGIIAGDRASPQPWRYRIRILAPSTSLRPHSSTTTTTTXIRLLTKPERKLSWLLPPLSNN
modifications: X: residue not identified in the source
toxicity during the course of the treatment [1]: No toxicity was observed; also recorded: not toxic | anti-proliferative effect (tumor cell line NCI-H460): without any detectable anti-proliferative effect | anti-angiogenic activity, capillary tube formation (HUVEC; 497C-T2 0.27-2 μM, 497C-T3 […], 497C-T4 3.18 μM, 497C-T5 3.35 μM, C-terminal tail 4.14 μM): inhibited in vitro angiogenesis in a dose-dependent manner | inhibition of in vitro angiogenesis (HUVEC; at 270 nM): small inhibition | inhibition of in vitro angiogenesis (HUVEC; at 540 nM): more than 50% | potency relative to anti-VEGF mAb and/or VEGF receptor (KDR)-based peptides (HUVEC; comparison with literature (Binetruy-Tournaire 2000)): at least 200 fold | IC50 (HUVEC; dose-response study, read-out: IC50, inhibition of in vitro angiogenesis): < 540 nM | anti-proliferative effect (CHO): without any detectable anti-proliferative effect | concentration significantly inhibiting human endothelial cell proliferation (as low as) (HUVEC cells): 500 nM | % inhibition of endothelial cell proliferation (HUVEC cells; 5 μM (122 μg) 497C-T2, 42 hrs, relative to control, 5 µM): 77% and 75% | inhibition of human endothelial cell proliferation (HUVEC cells; increasing concentrations, FIG. 1): inhibited human endothelial cell proliferation in a dose dependent manner | anti-proliferative effect [2]: without any detectable anti-proliferative effect | anti-tumoral activity (CALU-6 tumors; CALU-6, monotherapy (G3) or combined with CDDP (G4)): slight anti-tumoral activity | Growth inhibition based on T/C ratio, T/C ratio (%) D14 (CALU-6 tumors; [3]): 10% | Growth inhibition based on T/C ratio, T/C ratio (%) D16 (CALU-6 tumors; [3]): 33% | Growth inhibition based on T/C ratio, T/C ratio (%) D18 (CALU-6 tumors; [3]): 7% | Growth inhibition based on T/C ratio, T/C ratio (%) D20 (CALU-6 tumors; [3]): 13% | Growth inhibition based on T/C ratio, T/C ratio (%) D22 (CALU-6 tumors; [3]): 26% | Growth inhibition based on T/C ratio, T/C ratio (%) D24 (CALU-6 tumors; [3]): 24% | Growth inhibition based on T/C ratio, T/C ratio (%) D26 (CALU-6 tumors; [3]): 39% | Growth inhibition based on T/C ratio, T/C ratio (%) D28 (CALU-6 tumors; [3]): 27% | MRTV D14 (CALU-6 tumors; [3]): 1.64 | MRTV D16 (CALU-6 tumors; [3]): 2.11 | MRTV D18 (CALU-6 tumors; [3]): 2.34 | MRTV D20 (CALU-6 tumors; [3]): 3.22 | MRTV D22 (CALU-6 tumors; [3]): 3.09 | MRTV D24 (CALU-6 tumors; [3]): 4.31 | MRTV D26 (CALU-6 tumors; [3]): 4.60 | MRTV D28 (CALU-6 tumors; [3]): 6.02 | MRTV D12 (CALU-6 tumors; reference day, IP Q2DX8, CDDP 5 mg/kg (G2), 497C-T2 10 mg/kg (G3), 497C-T2 10 mg/kg + CDDP 5 mg/kg (G4)): 1
